Measurements as given in patent US20060204443A1, “Methods for tumor treatment using dendrimer conjugates” (The Government of the USA as represented by the Secretary …, priority 2005, published 2006).

What was measured:
[1] = in vivo
[2] = Quantification of contrast agent in sentinel lymph nodes (signal intensity compared with phantoms); format: in vivo, athymic nu/nu mice
Protocol: In order to semi-quantify the concentration of contrast agent within each sentinel lymph node, non-tumor bearing athymic nu/nu mice (n=8) were anesthetized and injected with 0.40 μmolGd of the G6 contrast agent (40 mMGd/6400 ppm) into the mammary gland, and axial images were taken with serum phantoms containing known concentrations (2.5 and 5 mM) of G6 using the 3D-fastSPGR (repetition time/echo time 19.2/7.2 msec; inversion time 47 msec; bandwidth 31.2 kHz, flip angle 30°, 3 excitations; 16 slice encoding steps; scan time 2 minutes 25 seconds) 12, 24, 36, 48, and 60 minutes after injection.
To validate the concentration of G6 agent, we used another method to calculate the Gd concentration in the enhanced left axillary lymph node. The consecutive MR images of 5 separate mice together with the same phantoms used above were taken with the same 3D-fSPGR protocol using 4 flip angles (10, 20, 30, and 40 degrees) at 24 min post-injection of 40 mM/20 μL G6 agent in the left mammary gland. Signal intensity of the enhanced left axillary lymph node was corrected with that in the right axillary lymph node as a non-enhanced control. Then, signal intensities obtained with different flip angles were plotted in order to calculate decreased T1 values in the left axillary lymph node due to the presence of G6 agent. Gd(III) concentrations were calculated based on the decreased T1 values in the enhanced node and the R1 relaxivity of G6 agent at this condition. Technically, multi-flip angle scans were able to be performed once an hour because of the gradient driver overheat on the MRI system. In order to calculate serial concentration of the G6 agent, this separate set of mice was used only to obtain the T1 values. The serial concentrations of G6 agent were calculated based on serial scan data under flip angle (30°) and T1 values obtained from multi-flip angle scans.

[3] = system: lymphatic drainage from tumor-bearing mammary glands; assay: MR mammo-lymphangiography in breast tumor models (BALB-neuT, PT-18 xenograft); format: in vivo, mice
From the text: The breast-tumor bearing mice were thirty one week-old BALB-neuT mice (n=3) transgenic for the rat HER-2/neu (Erb B2) oncogene under the control of the mouse mammary tumor virus promotor (MMTV). […] BALB-neuT mice were used because of their spontaneous development of bilateral breast cancers and lymph node metastases. Heterozygous female BALB-neuT mice (BALB/c background) develop mammary gland lobule hyperplasia at 5-6 weeks of age that progresses to atypical hyperplasia by 8-9 weeks, followed by in situ carcinoma by 14 weeks, becoming invasive carcinoma usually by 21 week of age. Rovero et al., J. Immunol.; 165:5133-42, 2000. Most metastatic lymph nodes from the mouse mammary pad localize in the neck, lateral thoracic, or axillary region.
Tumor xenografts of PT-18, a murine mast cell line, were introduced into the left mammary pad in athymic nu/nu mice. When 10^7 PT-18 cells were injected in the left mammary pad of 10 athymic nu/nu mice, six mice developed tumor masses in the left axillary lymph nodes within three weeks.
Mice were anesthetized with 1.15 mg sodium pentobarbital (Dainabot, Osaka, Japan), and then injected with 0.15-0.24 μmol Gd/5-8 μL of the PAMAM-G6 contrast agent into normal mammary glands or mammary tissue surrounding a tumor (peritumorally). Dynamic micro-MR images were obtained using a 1.5-Tesla superconductive magnet unit (Signa LX, General Electric Medical System, Milwaukee, Wis.) with a birdcage type coil of 3 cm diameter fixed by a custom made coil holder. Single and double “breast coils” used for imaging breasts in humans are commercially available, for example, from GE Medical Systems (Milwaukee, Wis.) and are routinely available in outpatient MRI centers. The mice were wrapped with gauze to stabilize their body temperature and were placed at the center of the coils. […]

[4] = PT-18 model, peritumoral injection

In the case of “PAMAM-G6D-(Gd-1B4M)256 dendrimer conjugate”, the “Survival in the lymph system” value [1] is reported as “intermediate survival period in the lymph system”, the “Time of maximum concentration in the axillary lymph node” value ([2]; five mice) is reported as 24 minutes post-injection in two of five mice and 36 minutes post-injection in three of five mice and the “Retention in the left axillary lymph node (FIG. 23)” value ([2]; mouse, in vivo) is reported as “maintained in high concentration in the lymph node for up to 60 minutes post-injection”. The “Accumulation in the lateral thoracic lymph nodes” value ([2]; number of mice) was “three of five mice”, the “Imaging of enlarged metastatic lymph nodes and dilated lymphatic vessels” value ([3]; BALB-neuT model) was “clearly imaged” and the “Enhancement of axillary lymph node tissue with metastatic tumor cells” value [3, 4] was “did not shown enhancement”. The “Lymphatic vessel flowing into the lymph node with a metastatic tumor” value [3, 4] was “dilated and showed enhancement”.
